Data: US7666582B2, “IdeS, an IgG-degrading enzyme of Streptococcus pyogenes” (Hansa Medical Research AB, priority 2001, dated 2010)

Legend:
[1] = molecular target: T1, H-kininogen (Homo sapiens, UniProt P01042); test: IdeS cleavage of other human proteins: H-kininogen; type: biochemical
T1 sequence (P01042 19-644): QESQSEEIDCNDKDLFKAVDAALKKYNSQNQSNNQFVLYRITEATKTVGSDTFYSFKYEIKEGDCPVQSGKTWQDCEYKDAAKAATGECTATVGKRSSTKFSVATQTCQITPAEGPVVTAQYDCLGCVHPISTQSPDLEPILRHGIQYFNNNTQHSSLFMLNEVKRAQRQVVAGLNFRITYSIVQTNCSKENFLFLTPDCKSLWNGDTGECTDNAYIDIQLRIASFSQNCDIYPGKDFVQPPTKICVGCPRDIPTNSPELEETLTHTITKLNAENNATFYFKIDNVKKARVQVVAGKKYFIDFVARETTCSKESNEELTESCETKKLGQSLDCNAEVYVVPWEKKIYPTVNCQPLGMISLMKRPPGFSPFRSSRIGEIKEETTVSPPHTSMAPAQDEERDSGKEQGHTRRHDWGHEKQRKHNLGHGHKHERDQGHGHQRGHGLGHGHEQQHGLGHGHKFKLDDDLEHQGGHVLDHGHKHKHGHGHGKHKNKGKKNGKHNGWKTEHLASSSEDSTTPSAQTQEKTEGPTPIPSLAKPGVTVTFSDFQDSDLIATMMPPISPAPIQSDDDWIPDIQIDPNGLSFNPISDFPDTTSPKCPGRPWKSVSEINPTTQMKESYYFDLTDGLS

[2] = test system: murine IgG; test: IdeS species restrictions: murine IgG; type: biochemical
[3] = molecular target: aprotinin (Bos taurus, UniProt P00974); test: IdeS cleavage of other human proteins: aprotinin; type: biochemical
[4] = test system: laminin; test: IdeS cleavage of other human proteins: laminin; type: biochemical
[5] = test system: goat IgG; test: IdeS species restrictions: goat IgG; type: biochemical
[6] = molecular target: T2, cystatin C (Homo sapiens, UniProt P01034); test: IdeS cleavage of other human proteins: cystatin C; type: biochemical
T2 sequence (P01034 27-146): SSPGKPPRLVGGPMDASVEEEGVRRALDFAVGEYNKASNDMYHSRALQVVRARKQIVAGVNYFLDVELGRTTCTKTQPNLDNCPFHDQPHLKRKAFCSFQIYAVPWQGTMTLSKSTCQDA

[7] = test system: rabbit IgG; test: IdeS species restrictions: rabbit IgG; type: biochemical
[8] = molecular target: T3, cystatin D (Homo sapiens, UniProt P28325); test: IdeS cleavage of other human proteins: cystatin D; type: biochemical
T3 sequence (P28325 21-142): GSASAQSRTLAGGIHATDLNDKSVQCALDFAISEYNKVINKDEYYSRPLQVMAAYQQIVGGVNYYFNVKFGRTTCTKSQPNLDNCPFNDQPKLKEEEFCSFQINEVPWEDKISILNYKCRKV

[9] = test system: human IgM; test: IdeS cleavage assay of Ig classes: IgM; type: biochemical; conditions: purified IdeS, 2 h at 37° C.
Method: (§1) For standard IdeS activity assays, bacteria cultures were grown to OD620=0.4. Bacteria were pelleted by centrifugation and supernatants were sterile-filtered through a 0.22 μm membrane (Millipore) prior to use. For activity assays, […] of supernatant were mixed with 5 μl of IgG (10 mg/ml, Sigma) and the volume was adjusted with PBS to 100 μl. For screening of IdeS activity in different S. progenes strains, E64 was added to a final concentration of 40 μM. The mixtures were incubated at 37° C. for 30 min and samples were analyzed by 12% SDS-PAGE. For cleavage assays of different classes of Ig, purified IdeS (0.3 μg/ml) was incubated with 3 μg Ig for 2 h at 37° C., and analyzed by 12% SDS-PAGE analysis.

[10] = test system: IgG bound to AP1 bacteria; test: IdeS cleavage of IgG bound to S. pyogenes bacterial surface; type: cell-based, human; conditions: AP1 bacteria after absorption of non-immune or immune plasma
[11] = test system: human IgG; test: IdeS cleavage assay of Ig classes: IgG; type: biochemical
Method: as §1

[12] = test system: whole human plasma; test: Incubation of human plasma with IdeS; type: biochemical
[13] = molecular target: α 1-antitrypsin (Homo sapiens, UniProt P01009); test: IdeS cleavage of other human proteins: α 1-antitrypsin; type: biochemical
Sequence of α 1-antitrypsin (P01009 25-418): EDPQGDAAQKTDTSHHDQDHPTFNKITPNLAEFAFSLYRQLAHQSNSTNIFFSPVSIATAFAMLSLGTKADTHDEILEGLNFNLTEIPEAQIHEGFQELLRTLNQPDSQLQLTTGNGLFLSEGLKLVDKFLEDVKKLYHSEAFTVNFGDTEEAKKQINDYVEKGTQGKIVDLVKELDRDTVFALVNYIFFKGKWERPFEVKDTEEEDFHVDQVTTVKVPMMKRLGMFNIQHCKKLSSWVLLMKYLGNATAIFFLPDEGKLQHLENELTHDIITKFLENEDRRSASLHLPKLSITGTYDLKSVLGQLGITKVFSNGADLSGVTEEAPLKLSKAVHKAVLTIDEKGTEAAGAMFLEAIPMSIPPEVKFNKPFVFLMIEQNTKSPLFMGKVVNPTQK

[14] = molecular target: T4, cystatin C (Gallus gallus, UniProt P01038); test: IdeS incubation with chicken cystatin C; type: biochemical
T4 sequence (P01038 24-139): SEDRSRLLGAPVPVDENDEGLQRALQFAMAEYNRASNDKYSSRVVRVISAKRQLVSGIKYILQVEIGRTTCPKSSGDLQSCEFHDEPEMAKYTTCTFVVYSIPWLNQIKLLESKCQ

[15] = test system: human IgE; test: IdeS cleavage assay of Ig classes: IgE; type: biochemical; conditions: purified IdeS, 2 h at 37° C.
Method: as §1

[16] = test system: different subclasses of IgG; test: IdeS activity against the subclasses of IgG; type: biochemical, human
[17] = test system: synthetic peptide homologous to amino acids 234 to 241 of human IgG; test: IdeS activity towards peptides: IgG hinge peptide; type: biochemical
[18] = test system: human IgA; test: IdeS cleavage assay of Ig classes: IgA; type: biochemical; conditions: purified IdeS, 2 h at 37° C.
Method: as §1

[19] = test system: Fc-fragment generated by papain cleavage, including 12 amino acids of the hinge region; test: IdeS cleavage of papain-generated Fc-fragment; type: biochemical, human
[20] = molecular target: albumin (Homo sapiens, UniProt P02768); test: IdeS cleavage of other human proteins: albumin; type: biochemical
[21] = molecular target: lactoferrin (Homo sapiens, UniProt P02788); test: IdeS cleavage of other human proteins: lactoferrin; type: biochemical
Sequence of lactoferrin (P02788 20-710): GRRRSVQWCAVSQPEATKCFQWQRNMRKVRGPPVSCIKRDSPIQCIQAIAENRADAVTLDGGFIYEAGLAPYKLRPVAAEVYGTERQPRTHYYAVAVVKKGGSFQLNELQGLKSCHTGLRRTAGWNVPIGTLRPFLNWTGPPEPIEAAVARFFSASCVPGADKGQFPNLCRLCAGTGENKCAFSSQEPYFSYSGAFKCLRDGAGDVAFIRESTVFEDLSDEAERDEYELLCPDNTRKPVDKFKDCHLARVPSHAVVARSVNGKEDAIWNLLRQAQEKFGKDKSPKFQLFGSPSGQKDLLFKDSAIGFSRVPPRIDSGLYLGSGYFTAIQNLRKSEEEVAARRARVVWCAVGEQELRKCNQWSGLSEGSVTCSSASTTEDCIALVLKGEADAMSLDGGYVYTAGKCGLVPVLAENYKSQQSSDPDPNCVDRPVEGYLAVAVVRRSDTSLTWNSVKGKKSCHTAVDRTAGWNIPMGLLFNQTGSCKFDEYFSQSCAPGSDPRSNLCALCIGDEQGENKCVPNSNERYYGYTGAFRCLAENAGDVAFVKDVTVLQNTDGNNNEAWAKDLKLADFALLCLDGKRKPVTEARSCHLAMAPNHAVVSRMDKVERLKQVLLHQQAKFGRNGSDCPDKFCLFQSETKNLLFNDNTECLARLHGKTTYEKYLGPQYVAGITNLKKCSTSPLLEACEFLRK

[22] = molecular target: T5, antimicrobial peptide LL-37 (Homo sapiens, UniProt P49913); test: IdeS activity towards peptides: LL-37; type: biochemical
T5 construct: antimicrobial peptide LL-37
T5 sequence (P49913 134-170 limits assumed): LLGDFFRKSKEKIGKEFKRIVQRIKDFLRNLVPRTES

[23] = molecular target: transferrin (Homo sapiens, UniProt P02787); test: IdeS cleavage of other human proteins: transferrin; type: biochemical
Sequence of transferrin (P02787 20-698): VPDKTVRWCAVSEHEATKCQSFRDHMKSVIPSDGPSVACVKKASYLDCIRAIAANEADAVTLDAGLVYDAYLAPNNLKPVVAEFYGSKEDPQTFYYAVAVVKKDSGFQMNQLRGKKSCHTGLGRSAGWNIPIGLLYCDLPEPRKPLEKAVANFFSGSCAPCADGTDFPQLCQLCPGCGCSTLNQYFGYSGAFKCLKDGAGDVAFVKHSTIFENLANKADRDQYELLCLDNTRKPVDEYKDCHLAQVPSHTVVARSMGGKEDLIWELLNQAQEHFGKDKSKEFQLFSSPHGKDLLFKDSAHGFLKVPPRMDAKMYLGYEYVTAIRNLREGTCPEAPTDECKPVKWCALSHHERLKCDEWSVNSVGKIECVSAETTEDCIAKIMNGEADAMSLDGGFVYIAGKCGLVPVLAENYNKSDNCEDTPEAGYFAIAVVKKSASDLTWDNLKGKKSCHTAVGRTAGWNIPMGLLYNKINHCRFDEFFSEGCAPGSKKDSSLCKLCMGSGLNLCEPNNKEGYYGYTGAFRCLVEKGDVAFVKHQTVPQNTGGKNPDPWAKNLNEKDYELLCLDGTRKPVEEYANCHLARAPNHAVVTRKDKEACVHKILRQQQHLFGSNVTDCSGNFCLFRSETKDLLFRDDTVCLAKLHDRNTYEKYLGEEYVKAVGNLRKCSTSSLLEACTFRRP

[24] = test system: IgG2; test: IdeS activity against IgG2; type: biochemical, human

B1: IdeS: new extracellular cysteine protease produced by S. pyogenes, highly specific for IgG; SEQ ID NO: 1 (protein)
chain: DSFSANQEIRYSEVTPYHVTSVWTKGVTPPANFTQGEDVFHAPYVANQGWYDITKTFNGKDDLLCGAATAGNMLHWWFDQNKDQIKRYLEEHPEKQKINFNGEQMFDVKEAIDTKNHQLDSKLFEYFKEKAFPYLSTKHLGVFPDHVIDMFINGYRLSLTNHGPTPVKEGSKDPRGGIFDAVFTRGDQSKLLTSRHDFKEKNLKEISDLIKKELTEGKALGLSHTYANVRINHVINLWGADFDSNGNLKAIYVTDSDSNASIGMKKYFVGVNSAGKVAISAKEIKEDNIGAQVLGLFTLSTGQDSWNQTN
modifications: S. Pyogenes
[1]
  cleavage products, H-kininogen: No cleavage products could be detected
[2]
  cleavage of murine IgG: not murine IgG
[3]
  cleavage products, aprotinin: No cleavage products could be detected
[4]
  cleavage products, laminin: No cleavage products could be detected
[5]
  cleavage of goat IgG: cleave
[6]
  cleavage products, cystatin C: No cleavage products could be detected
[7]
  cleavage of rabbit IgG: cleave
[8]
  cleavage products, cystatin D: No cleavage products could be detected
[9]
  degradation of human IgM: only IgG was degraded
[10]
  cleavage of IgG bound to the bacterial surface (31 kDa band): in both cases IgG was cleaved
[11]; purified IdeS, 2 h at 37° C.
  degradation of human IgG: only IgG was degraded
[11]; species restrictions
  cleavage of human IgG: cleave
[12]; purified IdeS
  degradation products in human plasma: only the 31 kDa IgG-derived band and no additional degradation products could be identified
[12]; whole human plasma, further studies
  cleavage products: No cleavage products could be detected
[13]
  cleavage products, α 1-antitrypsin: No cleavage products could be detected
[14]
  cleavage products, cystatin C from chicken: No cleavage products could be observed
[15]
  degradation of human IgE: only IgG was degraded
[16]
  digestion of the different subclasses of IgG: all were susceptible for IdeS digestion
[17]
  degradation of synthetic peptide (amino acids 234 to 241 of human IgG): did not reveal any degradation
[18]
  degradation of human IgA: only IgG was degraded
[19]
  cleavage of papain-generated Fc-fragment: is cleaved
[20]
  cleavage products, albumin: No cleavage products could be detected
[21]
  cleavage products, lactoferrin: No cleavage products could be detected
[22]
  degradation of LL-37: did not reveal any degradation
[23]
  cleavage products, transferrin: No cleavage products could be detected
[24]
  digestion of IgG2 compared to the other subclasses: less efficiently digested
